Two molecules from patent publication US6548060 (dated 2003) can be followed below.

T1: human glutaminyl-tRNA synthetase, full-length (human, UniProt P47897 1-775)
T1 construct: range 1-775; Fused to LexA in the yeast two-hybrid assay (pEG202); also called QRS; QRS-F
T1 sequence (looked up): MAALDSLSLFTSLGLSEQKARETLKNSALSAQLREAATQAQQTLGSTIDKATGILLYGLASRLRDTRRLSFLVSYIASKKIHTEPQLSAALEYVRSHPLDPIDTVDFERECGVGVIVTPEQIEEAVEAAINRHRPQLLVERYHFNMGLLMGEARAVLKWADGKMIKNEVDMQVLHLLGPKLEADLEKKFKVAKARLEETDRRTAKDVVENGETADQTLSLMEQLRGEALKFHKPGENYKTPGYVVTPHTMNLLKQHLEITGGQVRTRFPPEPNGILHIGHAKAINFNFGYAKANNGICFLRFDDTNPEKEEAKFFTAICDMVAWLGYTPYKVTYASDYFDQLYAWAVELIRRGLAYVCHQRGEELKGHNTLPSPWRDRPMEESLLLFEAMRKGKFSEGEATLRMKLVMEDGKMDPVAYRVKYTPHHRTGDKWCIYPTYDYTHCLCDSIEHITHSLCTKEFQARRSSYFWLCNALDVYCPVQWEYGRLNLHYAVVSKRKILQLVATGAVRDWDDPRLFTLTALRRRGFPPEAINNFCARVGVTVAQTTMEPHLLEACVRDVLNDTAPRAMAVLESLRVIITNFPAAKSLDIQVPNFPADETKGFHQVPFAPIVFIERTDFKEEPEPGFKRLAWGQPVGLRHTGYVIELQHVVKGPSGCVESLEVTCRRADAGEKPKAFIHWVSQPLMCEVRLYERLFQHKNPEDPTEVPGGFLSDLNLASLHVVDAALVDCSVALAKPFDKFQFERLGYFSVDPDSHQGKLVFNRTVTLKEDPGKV

T2: ASK1 (apoptosis signal-regulating kinase), full-length (UniProt Q99683 1-1374, limits assumed)
T2 construct: Full-length; LexA fusion in yeast two-hybrid; HA-tagged (pcDNA3-HA-ASK1, gift of Dr. Ichijo) in 293 cells for co-IP and the MBP kinase assay; Flag-tagged in the GST-SEK1 kinase assay; also called ASK1-F; HA-ASK1
T2 sequence (looked up): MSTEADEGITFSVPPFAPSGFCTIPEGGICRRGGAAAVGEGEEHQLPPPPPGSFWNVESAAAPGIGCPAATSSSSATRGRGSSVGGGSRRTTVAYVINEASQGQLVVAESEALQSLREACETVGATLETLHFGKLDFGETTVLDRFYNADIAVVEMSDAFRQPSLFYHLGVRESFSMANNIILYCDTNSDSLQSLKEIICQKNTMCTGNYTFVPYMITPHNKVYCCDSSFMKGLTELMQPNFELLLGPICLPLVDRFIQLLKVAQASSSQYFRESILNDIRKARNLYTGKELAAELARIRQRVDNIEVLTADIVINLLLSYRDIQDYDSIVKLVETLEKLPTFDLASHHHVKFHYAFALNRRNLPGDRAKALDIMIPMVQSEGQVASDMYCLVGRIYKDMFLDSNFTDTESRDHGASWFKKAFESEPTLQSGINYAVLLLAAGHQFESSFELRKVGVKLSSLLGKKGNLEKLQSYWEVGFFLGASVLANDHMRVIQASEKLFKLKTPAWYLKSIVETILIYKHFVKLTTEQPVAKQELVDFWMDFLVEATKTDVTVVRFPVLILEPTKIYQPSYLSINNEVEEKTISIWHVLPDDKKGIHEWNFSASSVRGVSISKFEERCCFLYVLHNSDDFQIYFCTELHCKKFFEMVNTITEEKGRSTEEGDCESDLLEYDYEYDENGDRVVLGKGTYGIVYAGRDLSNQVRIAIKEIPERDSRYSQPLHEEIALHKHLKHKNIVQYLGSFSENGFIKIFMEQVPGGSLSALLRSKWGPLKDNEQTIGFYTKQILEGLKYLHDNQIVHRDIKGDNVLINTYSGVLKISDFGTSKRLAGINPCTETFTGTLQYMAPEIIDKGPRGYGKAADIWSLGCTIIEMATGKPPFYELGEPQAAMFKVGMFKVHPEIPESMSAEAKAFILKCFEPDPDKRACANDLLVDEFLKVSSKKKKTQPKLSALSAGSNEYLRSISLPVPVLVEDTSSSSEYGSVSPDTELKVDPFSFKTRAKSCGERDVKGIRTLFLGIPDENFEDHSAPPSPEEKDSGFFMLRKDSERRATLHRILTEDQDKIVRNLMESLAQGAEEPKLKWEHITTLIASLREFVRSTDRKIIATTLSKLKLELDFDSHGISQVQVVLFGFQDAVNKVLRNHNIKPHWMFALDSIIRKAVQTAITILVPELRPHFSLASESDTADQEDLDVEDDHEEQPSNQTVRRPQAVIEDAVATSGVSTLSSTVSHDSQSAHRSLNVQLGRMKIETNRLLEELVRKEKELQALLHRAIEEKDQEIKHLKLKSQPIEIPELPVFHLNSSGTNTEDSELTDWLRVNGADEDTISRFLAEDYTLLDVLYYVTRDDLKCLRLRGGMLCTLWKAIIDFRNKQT

B1: C-terminal 137 aa peptide of human Daxx (G604-D740) (other, UniProt Q9UER7 604-740, looked up)
chain: GAGMVSSTSFNGGVSPHNWGDSGPPCKKSRKEKKQTGSGPLGNSYVERQRSVHEKNGKKICTLPSPPSPLASLAPVADSSTRVDSPSHGLVTSSLCIPSPARLSQTPHSQPPRPGTCKTSVATQCDPEEIIVLSDSD
notes: range 604-740; B42 fusion in yeast two-hybrid; His fusion (pET28a), purified, in the in vitro pull-down; also called Daxx-C; B42-Daxx-C
B2: N-terminal 236 aa extension of human glutaminyl-tRNA synthetase (other, UniProt P47897 1-236, looked up)
chain: MAALDSLSLFTSLGLSEQKARETLKNSALSAQLREAATQAQQTLGSTIDKATGILLYGLASRLRDTRRLSFLVSYIASKKIHTEPQLSAALEYVRSHPLDPIDTVDFERECGVGVIVTPEQIEEAVEAAINRHRPQLLVERYHFNMGLLMGEARAVLKWADGKMIKNEVDMQVLHLLGPKLEADLEKKFKVAKARLEETDRRTAKDVVENGETADQTLSLMEQLRGEALKFHKPGE
notes: range 1-236; LexA fusion in yeast two-hybrid; GST fusion (pGEX4T-2), purified, in the in vitro pull-down; Myc-tagged from pcDNA3 in 293 cells for co-IP; also called QRS-N; LexA-QRS-N

In assay [1] the target is T1, human glutaminyl-tRNA synthetase, …. The assay can be described thus: yeast two-hybrid (FIG. 2A). The method, then: (§1) Figure 2: FIG. 2. Interaction of QRS-N and Daxx-C. A. (upper panel) The interaction of QRS and Daxx was mapped by yeast two hybrid analysis. The full-length (F), N-terminal 236 aa (N) and C-terminal 539 aa (C) peptides of QRS, and the full-length ASK1 were fused to LexA (DNA-binding protein). […] The pairs of LexA and B42 hybrid proteins were expressed in a yeast tester strain and the positive interactions were determined by the formation of blue colonies as described previously (8). […] Daxx-C and QRS-N were expressed as His (pET28a, Novagen) and GST (pGEX4T-2, Amersham Pharmacia Biotech) fusion proteins, respectively and purified following the manufacturer's instructions. The purified His-Daxx-C (5 ug) was mixed with GST or GST-QRS-N (5 ug) at 4° C. for 30 min in 20 mM sodium phosphate buffer, pH 7.8, containing 500 mM NaCl. The GST proteins were precipitated with the GST resin (10 ul) and the precipitated proteins were eluted and resolved by 12% SDS-polyacrylamide gel electrophoresis and stained with Coomasie blue. Figure 2:
(§2) Human Daxx was originally identified to be associated to Fas to mediate apoptotic signal ( 10) to its downstream kinase, ASK1 (11). The activation of ASK1 then results in activation of Jun N-terminal kinase (JNK) and p38 for cellular apoptosis (12). The interaction between QRS and Daxx was further refined by yeast two hybrid analysis. […]

In assay [2] the target is T3, N-terminal 610 aa peptide of Daxx (human, UniProt Q9UER7 1-610).
T3 construct: range 1-610; Yeast two-hybrid construct; 610 aa overlaps Daxx-C (604-740) by a few residues as printed; also called Daxx-N
T3 sequence (Q9UER7 1-610 limits assumed): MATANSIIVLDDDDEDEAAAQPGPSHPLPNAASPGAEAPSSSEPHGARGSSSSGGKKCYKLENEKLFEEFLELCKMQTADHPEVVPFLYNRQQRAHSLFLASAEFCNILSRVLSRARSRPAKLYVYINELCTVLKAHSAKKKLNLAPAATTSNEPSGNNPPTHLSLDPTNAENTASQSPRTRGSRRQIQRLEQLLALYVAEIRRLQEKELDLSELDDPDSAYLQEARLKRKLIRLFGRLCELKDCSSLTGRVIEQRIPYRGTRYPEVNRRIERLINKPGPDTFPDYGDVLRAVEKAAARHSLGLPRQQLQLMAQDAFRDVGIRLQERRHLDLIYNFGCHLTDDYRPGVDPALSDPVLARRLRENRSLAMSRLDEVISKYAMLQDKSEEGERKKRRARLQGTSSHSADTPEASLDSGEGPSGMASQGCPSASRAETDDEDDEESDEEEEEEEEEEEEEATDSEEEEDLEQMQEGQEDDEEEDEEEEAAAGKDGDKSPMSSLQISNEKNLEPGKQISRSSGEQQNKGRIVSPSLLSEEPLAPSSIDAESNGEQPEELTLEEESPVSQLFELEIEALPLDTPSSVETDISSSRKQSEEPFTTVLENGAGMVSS
In words: yeast two-hybrid (FIG. 2A lower panel). The method, then: as §1, with “Interaction” for “Figure 2: FIG. 2. Interaction”
as §2

The target in assay [3] is B2. In words: in vitro pull-down, purified His-Daxx-C with GST-QRS-N on GST resin, Coomassie-stained gel (FIG. 2B). On the procedure:
as §1
The interaction between the Daxx-C and QRS-N was confirmed by in vitro pull down experiment. Daxx-C and QRS-N were expressed as His and GST fusion proteins, respectively. The purified two fusion proteins were then mixed and precipitated with the GST resin. Daxx-C was co-precipitated with QRS-N, confirming the direct interaction between the two molecules (FIG. 2B).

Assay [4] deals with T4, human Daxx, full-length (human, UniProt Q9UER7 1-740).
T4 construct: range 1-740; Expressed from pcDNA3 in 293 cells for co-IP; also called B42-Daxx; pcDNA3-Daxx
The assay can be described thus: summary of the experiments in the legend of FIG. 1.

Assay [5] deals with T2, ASK1 (apoptosis signal-regulating …). In words: co-immunoprecipitation with anti-HA antibody from 293 cells (FIG. 3A). On the procedure:
Figure 3: FIG. 3. Interaction of QRS-C and ASK1-N. A. The cDNA (4 ug each) encoding QRS-F. -N or -C (Myc tagged) cloned in pcDNA3 was transfected into 293 cells in 100-mm dishes with 0.5 ug pcDNA3-HA-ASK1 (a kind gift of Dr. Ichijo, Tokyo university, Japan). Co-immunoprecipitation between HA-ASK1 and QRS was carried out as described previously (11) using anti-HA antibody (Santa Cruz). The precipitated proteins were resolved in 10% SDS-polyacrylamide gel, and the presence of QRS-F and -N, and -C were detected by immunoblotting with anti-QRS (17) and Myc (9E10, Boehringer Mannheim) antibodies, respectively. -B. pcDNA3-QRS-F (4 ug) was co-transfected into 293 cells with pcDNA3-HA-ASK1-F (full length) or -N (N-terminal 649 aa) (4 ug each). The cells were harvested after 24 hrs and the ASK1 peptides were precipitated with anti-HA antibody and co-precipitation of QRS was determined by immunoblotting with anti-QRS antibody. […]
Since ASK1 is the immediate downstream kinase of Daxx, we tested whether QRS also interacts with ASK1. The interaction of the two proteins was determined by co-immunoprecipitation. […] Since the N-terminal 649 aa peptide was previously determined to be a regulatory domain interacting with Daxx, (FIG. 1), we tested whether QRS interacts with ASK1-N or -C. […]

Consider B1, for which the binding result in assay [1], in assay [2] and in assay [3] was “binds” in each case.
Take B2: the binding result was “binds” in assay [4] and “no binding” in assay [5].
